Results as given in US20020068814A1.
Like-named read-outs stand apart in the source and are kept apart here. No end group written: not given here.

Columns and labels:
[1] = biological target: CGRP receptor of pig coronary artery (pig); test: displacement of 125I-[His10]-h-αCGRP from pig coronary artery membranes
[2] = biological target: CGRP receptor of pig coronary artery (pig); test: cell-based or functional assay
[3] = biological target: CGRP receptor of pig coronary artery (pig); test: displacement of 125I-[His10]-h-αCGRP from pig coronary artery membranes; remark: listed apart in the source

| Molecule | IC50 [1] | IC50 [3] | further results |
| --- | --- | --- | --- |
| h-α-CGRP (8-37) (peptide) |  |  | KB from inhibition of h-α-CGRP-induced relaxation of pig coronary artery rings (Schild analysis) [2]: 970 nM |
| VTHRLAGLLSRSGGMVKSNFVPTNVGSKAF (peptide, UniProt P10092 89-118, looked up, Calcitonin gene-related peptide 2 N,N-dibenzyl) [dibenzyl-h-β-CGRP(8-37)] |  | 0.73 nM |  |
| VTHRLAGLLSRSGGMVKSNFVPTNVGSKAF (peptide, UniProt P10092 89-118, looked up, Calcitonin gene-related peptide 2 N-alpha-benzoyl) [N-α-benzoyl-h-β-CGRP (8-37)] |  | 0.63 nM |  |
| VTHRLAGLLSRSGGMVKSNFVPTNVGSKAF (peptide, UniProt P10092 89-118, looked up, Calcitonin gene-related peptide 2 N-alpha-benzyl) [N-α-benzyl-h-β-CGRP (8-37)] |  | 3.62 nM |  |
| VTHRLAGLLSRSGGMVKSNFVPTNVGSKAF (ends and bridges not checked) [h-β-CGRP (8-37)] |  | 20.6 nM |  |

More lines, main results first:

| IC50 [1] | IC50 [3] | Molecule | further results |
| --- | --- | --- | --- |
| 0.27 nM |  | N-α-benzoyl-h-α-CGRP (8-37) (peptide) |  |
| 1.58 nM |  | N-α-benzyl-h-α-CGRP (8-37) (peptide) |  |
| 0.22 nM |  | dibenzyl-h-α-CGRP(8-37) (peptide) |  |
